In article PMC9935853:

Target: S. pombe respiratory complex IV (cytochrome c oxidase), affinity purified through a C-terminal twin-strep tag on subunit Cox5 (S. pombe) (UniProt P07657)
Test: pull-down + SEC; membranes solubilised in 1% GDN; StrepTactin column through Cox5-2xstrep, then Superose 6 Increase in 25 mM KH2PO4 pH 8.0, 150 mM KCl, 0.01% GDN; peaks analysed by reduced minus oxidized difference spectra

Chain of UniProt P07657 (P07657 whole entry, looked up, tested part not stated, one chain of several): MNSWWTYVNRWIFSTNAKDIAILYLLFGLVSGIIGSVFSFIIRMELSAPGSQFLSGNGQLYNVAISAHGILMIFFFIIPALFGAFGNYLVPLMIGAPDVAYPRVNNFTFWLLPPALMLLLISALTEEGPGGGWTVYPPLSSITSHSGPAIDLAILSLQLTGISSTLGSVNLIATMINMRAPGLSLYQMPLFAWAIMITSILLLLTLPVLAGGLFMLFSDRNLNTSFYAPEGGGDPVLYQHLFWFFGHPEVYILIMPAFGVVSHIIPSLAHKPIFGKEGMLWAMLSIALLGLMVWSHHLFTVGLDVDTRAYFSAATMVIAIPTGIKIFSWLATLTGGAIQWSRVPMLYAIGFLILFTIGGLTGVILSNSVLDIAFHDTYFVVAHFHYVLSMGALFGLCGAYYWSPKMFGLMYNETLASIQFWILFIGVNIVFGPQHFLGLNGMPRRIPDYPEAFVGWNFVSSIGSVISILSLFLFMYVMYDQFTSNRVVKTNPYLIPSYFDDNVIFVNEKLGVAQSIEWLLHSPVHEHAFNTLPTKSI

For “S. pombe respiratory complex III (cyt. bc1 complex)”, the stoichiometry N was 2 CIII:CIV.
